Blank lines part the entries; values can stand above or below the molecule they belong to.
Key:
HPTPβ = HPTPβ (Homo sapiens, UniProt P23467); assay: HPTPβ inhibitory activity (IC50); assay type: biochemical
eNOS = eNOS and Akt phosphorylation in human endothelial cells (immunoprecipitation, immunoblotting); assay type: cell-based
Procedure: Confluent monolayers of human endothelial cells expressing FLAG-tagged eNOS cultured overnight in MCDB131 containing 0.1% BSA and then incubated with increasing concentrations of Compound 2 (0.3-30 μmol/L) or solvent (DMSO) for 30 minutes. In separate experiments, human endothelial cells were cultured overnight in MCDB131 containing 0.1% BSA and then incubated treated with Compound 2 (30 μmol/L) or solvent for 30 minutes and then stimulated with Yoda1 (1 μmol/L) or solvent for an additional 30 minutes. To inhibit Src, cells were pre-incubated with PP2 (1 μmol/L) for 30 min before incubation with Compound 2 and stimulation with Yoda1. After two washes with cold PBS, cells were collected with the aid of cell scrapers in a lysis buffer containing Tris/HCl pH 7.5 (50 mmol/L), NaCl (150 mmol/L), Triton X-100 (1%), NaPPi (10 mmol/L), NaF (20 mmol/L), orthovanadate (2 mmol/L), okadaic acid (10 nmol/L), β-glycerophosphate (50 mmol/L), phenylmethylsulfonyl fluoride (230 μmol/L), and EDTA-free protease inhibitors mix. The cell mixture was incubated for 30 minutes at 4° C. with vortexing, followed by centrifugation at 13000 rpm for 10 minutes at 4° C. To assess the eNOS-VE-PTP interaction, the following modifications were applied: 1) cells were incubated with the lysis buffer for one hour on an end-over-end rocker at 4° C. and gently vortexed until no cell clumps were observed; 2) lysates were not centrifuged after lysis. FLAG-tagged eNOS was immunoprecipitated using 30 μL of packed Anti-FLAG M2 Affinity Gel per mg protein lysate overnight. The recovered immunoprecipitates were washed three times with the lysis buffer, eluted by boiling samples for 10 minutes in SDS sample buffer, and then analyzed by SDS-PAGE and immunoblotting.
Protein samples were separated by SDS-PAGE and then transferred to […] nitrocellulose membranes. Membranes were incubated overnight with primary antibodies against phospho-Tyr81 eNOS, phospho-Ser1177 eNOS, phospho-Ser633 eNOS, eNOS, phospho-Ser473 Akt, Akt, ABL1, VE-PTP, GAPDH, β-actin, followed by species-specific secondary antibodies anti-IgG conjugated with HRP. Proteins were visualized by enhanced chemiluminescence.

Tie-2 = Tie-2 phosphorylation in hypoxic HUVECs; assay type: cell-based, human; conditions: HUVECs hypoxic 16 h; ANG-1 alone 500 ng/mL
Procedure: HUVECs cultured under hypoxic conditions for 16 hours were treated with 5 μM Compound 1 for 10 minutes in the presence or absence of ANG-1 or ANG-2 (500 ng/mL). Untreated cells served as controls. The cells were then lysed and Tie-2 was immunoprecipitated and probed with anti-phosphotyrosine (p-Tyr) to indicate Tie-2 activation, or anti-Tie-2 as a loading control.

subjects with DME = assay: Sitting systolic blood pressure and pulse rate in subjects with DME, Compound 1 with or without ranibizumab (Example 9, TABLE 27); assay type: in vivo, human
Procedure: A total of 144 subjects with DME were split into 3 treatment groups. Group 1 received a subcutaneous injection of Compound 1 (15 mg) and a sham intravitreal injection. Group 2 received a subcutaneous injection of Compound 1 (15 mg) and an intravitreal injection of ranibizumab (0.3 mg). Group 3 received a subcutaneous injection of a placebo, and an intravitreal injection of ranibizumab (0.3 mg).
FIG. 19 and TABLE 27 show the effect of Compound 1 treatment, both alone and in combination with ranibizumab, on the sitting systolic blood pressure of subjects.
FIG. 20 compares the effects of Compound 1 treatment, alone (Group 1), or in combination with ranibizumab (Group 2), on subjects with a baseline sitting systolic blood pressure of 140 mmHg or greater, versus those with a baseline sitting systolic blood pressure of less than 140 mmHg. […] The correlation between baseline sitting systolic blood pressure and the change in blood pressure from baseline seen 30 and 90 minutes following specified treatments is shown in FIG. 21 and FIG. 22, respectively.

[1] = subjects with DME, Compound 1 15 mg subcutaneous, ranibizumab 0.3 mg intravitreal, 30 minutes post-dose
[2] = subjects with DME, Compound 1 15 mg subcutaneous, ranibizumab 0.3 mg intravitreal, 90 minutes post-dose

Sequence of HPTPβ (P23467 23-1997): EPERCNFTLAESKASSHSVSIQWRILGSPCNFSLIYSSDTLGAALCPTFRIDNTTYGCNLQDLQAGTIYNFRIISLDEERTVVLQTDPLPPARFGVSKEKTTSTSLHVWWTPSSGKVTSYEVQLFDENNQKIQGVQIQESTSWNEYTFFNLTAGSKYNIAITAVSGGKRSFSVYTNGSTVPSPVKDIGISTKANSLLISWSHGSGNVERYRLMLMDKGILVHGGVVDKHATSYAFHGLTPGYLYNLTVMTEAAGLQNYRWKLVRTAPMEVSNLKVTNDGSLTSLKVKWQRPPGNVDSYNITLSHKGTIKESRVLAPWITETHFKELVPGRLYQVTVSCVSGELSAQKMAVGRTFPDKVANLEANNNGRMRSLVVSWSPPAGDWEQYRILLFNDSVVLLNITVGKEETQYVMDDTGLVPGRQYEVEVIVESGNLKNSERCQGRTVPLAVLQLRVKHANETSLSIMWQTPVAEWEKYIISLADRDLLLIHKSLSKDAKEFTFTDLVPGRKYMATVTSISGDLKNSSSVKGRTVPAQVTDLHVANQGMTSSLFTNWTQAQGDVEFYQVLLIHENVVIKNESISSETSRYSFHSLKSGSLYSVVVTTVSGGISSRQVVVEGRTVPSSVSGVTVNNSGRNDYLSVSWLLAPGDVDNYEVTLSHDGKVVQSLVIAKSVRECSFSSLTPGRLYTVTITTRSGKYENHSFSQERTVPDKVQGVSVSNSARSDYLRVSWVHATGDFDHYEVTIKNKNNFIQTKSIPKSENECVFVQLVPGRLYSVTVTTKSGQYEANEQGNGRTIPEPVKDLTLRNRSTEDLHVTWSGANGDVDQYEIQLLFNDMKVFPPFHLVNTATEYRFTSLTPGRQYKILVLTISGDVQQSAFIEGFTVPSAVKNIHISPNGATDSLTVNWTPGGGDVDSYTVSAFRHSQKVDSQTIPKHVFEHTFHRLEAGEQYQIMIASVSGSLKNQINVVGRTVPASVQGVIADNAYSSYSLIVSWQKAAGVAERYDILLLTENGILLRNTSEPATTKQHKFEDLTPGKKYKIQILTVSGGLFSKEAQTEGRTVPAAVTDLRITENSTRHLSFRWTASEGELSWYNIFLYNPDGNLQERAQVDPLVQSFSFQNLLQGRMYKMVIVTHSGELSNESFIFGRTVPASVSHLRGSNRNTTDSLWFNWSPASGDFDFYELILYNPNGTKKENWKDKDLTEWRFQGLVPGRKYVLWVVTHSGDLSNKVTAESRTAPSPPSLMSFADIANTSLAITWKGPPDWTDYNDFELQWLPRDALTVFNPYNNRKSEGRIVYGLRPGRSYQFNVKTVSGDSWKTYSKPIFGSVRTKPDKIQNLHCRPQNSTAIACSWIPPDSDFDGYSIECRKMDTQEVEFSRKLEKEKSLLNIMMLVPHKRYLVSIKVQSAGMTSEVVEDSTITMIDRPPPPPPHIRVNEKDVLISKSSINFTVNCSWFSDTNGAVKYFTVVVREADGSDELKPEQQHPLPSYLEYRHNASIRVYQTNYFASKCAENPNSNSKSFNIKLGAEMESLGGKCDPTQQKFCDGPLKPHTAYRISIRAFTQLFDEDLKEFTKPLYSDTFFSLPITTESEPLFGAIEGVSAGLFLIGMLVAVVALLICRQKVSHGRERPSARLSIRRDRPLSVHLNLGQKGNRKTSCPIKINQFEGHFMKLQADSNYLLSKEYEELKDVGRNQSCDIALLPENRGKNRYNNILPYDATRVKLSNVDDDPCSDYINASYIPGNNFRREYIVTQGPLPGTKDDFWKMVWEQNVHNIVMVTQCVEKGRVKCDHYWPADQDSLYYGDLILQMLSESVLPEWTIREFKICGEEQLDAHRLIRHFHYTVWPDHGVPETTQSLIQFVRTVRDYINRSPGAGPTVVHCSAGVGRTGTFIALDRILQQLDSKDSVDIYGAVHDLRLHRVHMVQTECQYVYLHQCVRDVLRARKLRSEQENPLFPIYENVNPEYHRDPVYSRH

- IC50 (HPTPβ): < 0.002 nM
Molecule: COC(=O)N[C@@H](Cc1ccccc1)C(=O)N[C@@H](Cc1ccc(NS(=O)(=O)O)cc1)c1nc(-c2ccccc2)cs1 [AA21]

- IC50 (HPTPβ): 40 nM
Molecule: CCCc1nc([C@H](Cc2ccc(NS(=O)(=O)O)cc2)NC(=O)OC(C)(C)C)cs1 [AA65]

Molecule: CC(C)(C)n1nc(-c2ccc(Cl)cc2)c2c(N)ncnc21 [PP2, reference compound]
- basal and Yoda1-induced tyrosine phosphorylation of eNOS (eNOS; PP2 1 μmol/L pre-incubation): significantly reduced

Molecule: Clc1cccc(Cl)c1CSc1nnc(-c2cnccn2)s1 [Yoda1, reference compound]
- phosphorylation of Akt and eNOS (eNOS; Yoda1 1 μmol/L, 30 min): elicited the phosphorylation of Akt on Ser473, and phosphorylation of eNOS on Ser1177 and Ser633

B1: ANG-1: angiopoietin 1, an agonist of Tie-2 (protein, UniProt Q15389 16-498, looked up)
Angiopoietin-1: HIGCSNQRRSPENSGRRYNRIQHGQCAYTFILPEHDGNCRESTTDQYNTNALQRDAPHVEPDFSSQKLQHLEHVMENYTQWLQKLENYIVENMKSEMAQIQQNAVQNHTATMLEIGTSLLSQTAEQTRKLTDVETQVLNQTSRLEIQLLENSLSTYKLEKQLLQQTNEILKIHEKNSLLEHKILEMEGKHKEELDTLKEEKENLQGLVTRQTYIIQELEKQLNRATTNNSVLQKQQLELMDTVHNLVNLCTKEGVLLKGGKREEEKPFRDCADVYQAGFNKSGIYTIYINNMPEPKKVFCNMDVNGGGWTVIQHREDGSLDFQRGWKEYKMGFGNPSGEYWLGNEFIFAITSQRQYMLRIELMDWEGNRAYSQYDRFHIGNEKQNYRLYLKGHTGTAGKQSSLILHGADFSTKDADNDNCMCKCALMLTGGWWFDACGPSNLNGMFYTAGQNHGKLNGIKWHYFKGPSYSLRSTTMMIRPLDF
- Tie-2 phosphorylation (p-Tyr) (Tie-2): did not increase Tie-2 phosphorylation

B2: ranibizumab (antibody, chains of the INN, looked up, V domains shown)
VH: EVQLVESGGGLVQPGGSLRLSCAASGYDFTHYGMNWVRQAPGKGLEWVGWINTYTGEPTYAADFKRRFTFSLDTSKSTAYLQMNSLRAEDTAVYYCAKYPYYYGTSHWYFDVWGQGTLVTVSS
VL: DIQLTQSPSSLSASVGDRVTITCSASQDISNYLNWYQQKPGKAPKVLIYFTSSLHSGVPSRFSGSGSGTDFTLTISSLQPEDFATYYCQQYSTVPWTFGQGTKVEIK
modifications: Fab
- blood pressure change (subjects with DME; baseline sitting SBP 140 mmHg or greater, ranibizumab alone (Group 3)): Minimal change in blood pressure
- decrease in sitting systolic blood pressure compared to baseline (subjects with DME; ranibizumab 0.3 mg intravitreal alone (Group 3), 30 and 90 minutes post-dose): not seen

B3: Placebo + Ranibizumab (antibody, chains of the INN, looked up, V domains shown)
VH: B2 VH
VL: B2 VL
modifications: Fab with placebo
- Sitting systolic blood pressure, Change from pre-dose to 30 minutes post-dose, Max (subjects with DME; [1]): 31 mmHg
- Sitting systolic blood pressure, Change from pre-dose to 30 minutes post-dose, Mean (SD) (subjects with DME; [1]): 2.2 (14.32) mmHg
- Sitting systolic blood pressure, Change from pre-dose to 30 minutes post-dose, Median (subjects with DME; [1]): 1.0 mmHg
- Sitting systolic blood pressure, Change from pre-dose to 30 minutes post-dose, Min (subjects with DME; [1]): −37 mmHg
- Sitting systolic blood pressure, Change from pre-dose to 90 minutes post-dose, Max (subjects with DME; [2]): 35 mmHg
- Sitting systolic blood pressure, Change from pre-dose to 90 minutes post-dose, Mean (SD) (subjects with DME; [2]): −0.1 (14.46) mmHg
- Sitting systolic blood pressure, Change from pre-dose to 90 minutes post-dose, Median (subjects with DME; [2]): 2.0 mmHg
- Sitting systolic blood pressure, Change from pre-dose to 90 minutes post-dose, Min (subjects with DME; [2]): −30 mmHg
